Source: patent US20230212319A1, “NOVEL ANTIGEN BINDING DOMAINS AND SYNTHETIC ANTIGEN RECEPTORS INCORPORATING THE SAME” (University of Southern California, priority 2020, published 2023)

Tests used:
PC3 cells = assay: JNG NFAT-GFP induction on co-culture with PC3
SKOV3 cells = type: cell-based

Molecule | NFAT-GFP ASSAY: PC-3 (PC3 cells) | NFAT-GFP ASSAY: SKOV-3 (SKOV3 cells)
22691 (protein) MALPVTALLLPLALLLHAARPDIQMTQSPSSLSASVGDRVTITCRASQDISSYLNWYQQKPGKAPKLLIYYTSRLHSGVPSRFSGSGSGTDFTLTISSLQPEDFATYYCQQGNTLPYTFGQGTKVEIKRLEDLKNVFPPEVAVFEPSEAEISHTQKATLVCLATGFYPDHVELSWWVNGKEVHSGVCTDPQPLKEQPALNDSRYCLSSRLRVSATFWQNPRNHFRCQVQFYGLSENDEWTQDRAKPVTQIVSAEAWGRADCGFTSESYQQGVLSATILYEILLGKATLYAVLVSALVLMAMVKRKDSRGRAKRSGSGATNFSLLKQAGDVEENPGPTSMDWIWRILFLVGAATGAHSFEVQLVESGGGLVQPGGSLRLSCAASGFTFSDYFMSWVRQAPGKGLEWVATISNGGTYTYYPDSVKGRFTISRDNSKNTLYLQMNSLRAEDTAVYYCARFDGYIFDYWGQGTLVTVSSTRIQNPDPAVYQLRDSKSSDKSVCLFTDFDSQTNVSQSKDSDVYITDKCVLDMRSMDFKSNSAVAWSNKSDFACANAFNNSIIPEDTFFPSPESSCDVKLVEKSFETDTNLNFQNLSVIGFRILLLKVAGFNLLMTLRLWSSRAKRSGSGVKQTLNFDLLKLAGDVESNPGPSRGHMTEYKPTVRLATRDDVPRAVRTLAAAFADYPATRHTVDPDRHIERVTELQELFLTRVGLDIGKVWVADDGAAVAVWTTPESVEAGAVFAEIGPRMAELSGSRLAAQQQMEGLLAPHRPKEPAWFLATVGVSPDHQGKGLGSAVVLPGVEAAERAGVPAFLETSAPRNLPFYERLGFTVTADVEVPEGPRTWCMTRKPGA | significant GFP induction | –
22694 (protein) MALPVTALLLPLALLLHAARPDIQMTQSPSSLSASVGDRVTITCRASQDISNYLNWYQQKPGKAPKLLIYYTSRLHSGVPSRFSGSGSGTDFTLTISSLQPEDFATYYCQQGNTLPWTFGQGTKVEIKRLEDLKNVFPPEVAVFEPSEAEISHTQKATLVCLATGFYPDHVELSWWVNGKEVHSGVCTDPQPLKEQPALNDSRYCLSSRLRVSATFWQNPRNHFRCQVQFYGLSENDEWTQDRAKPVTQIVSAEAWGRADCGFTSESYQQGVLSATILYEILLGKATLYAVLVSALVLMAMVKRKDSRGRAKRSGSGATNFSLLKQAGDVEENPGPTSMDWIWRILFLVGAATGAHSFEVQLVESGGGLVQPGGSLRLSCAASGFTFSDYFMSWVRQAPGKGLEWVATISNGGTYTYYPDSVKGRFTISRDNSKNTLYLQMNSLRAEDTAVYYCARFDGYIFDYWGQGTLVTVSSTRIQNPDPAVYQLRDSKSSDKSVCLFTDFDSQTNVSQSKDSDVYITDKCVLDMRSMDFKSNSAVAWSNKSDFACANAFNNSIIPEDTFFPSPESSCDVKLVEKSFETDTNLNFQNLSVIGFRILLLKVAGFNLLMTLRLWSSRAKRSGSGVKQTLNFDLLKLAGDVESNPGPSRGHMTEYKPTVRLATRDDVPRAVRTLAAAFADYPATRHTVDPDRHIERVTELQELFLTRVGLDIGKVWVADDGAAVAVWTTPESVEAGAVFAEIGPRMAELSGSRLAAQQQMEGLLAPHRPKEPAWFLATVGVSPDHQGKGLGSAVVLPGVEAAERAGVPAFLETSAPRNLPFYERLGFTVTADVEVPEGPRTWCMTRKPGA | – | lowest GFP induction
